Here are results for 1 molecule from patent US20160252495A1 (UNIVERSITY OF BRITISH COLUMBIA, published 2016).

This assay concerns the target T1, hen egg white lysozyme (hen, UniProt P00698 19-147).
T1 construct: also called HEL; hen-egg lysozyme
The assay is described as follows: affinity measurements by microfluidic screening.

T1 sequence (P00698 19-147 limits assumed): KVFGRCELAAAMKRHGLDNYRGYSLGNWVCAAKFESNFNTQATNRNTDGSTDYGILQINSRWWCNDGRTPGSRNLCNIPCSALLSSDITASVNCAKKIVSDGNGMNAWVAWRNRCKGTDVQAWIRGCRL

B1: Mm20 mouse anti-hen egg lysozyme antibody (antibody, V domains shown)
VH: QVQLQQSGPELMKPGASVKISCKATGYTFRNYWIEWIKQRPGHGLEWIGEILPESGSINYNEKFKGKATFTADTSSNTAYLQLRSLTSEDSAVYYCFYDNYVFDYWGQGTTL
VL: QIVLIQSPTIMSASPGEKVTMTCSANSSFSYMHWYQQKSGTSPKRWIYDTSKLASGVPARFSGSGSGTSYSLTISSMEAEDAATYYCQQWSRNPTFGAGTKL
Consider B1, for which the binding result is “binds”.
